Patent US20240376170A1 (BRIGHT PEAK THERAPEUTICS, published 2024)
Where “and” joins values, the source holds several entries; their conditions need not be identical. Equal values may be shown once. Primed or numbered codes have the meaning given here. [ ]: non-standard residue; d: D form. Ygp = O-(8x polyethylene glycol-amino)-tyrosine (Tyr, amino-capped PEG8); Yn3 = O-(9x polyethylene glycol-azido)-tyrosine (Tyr, azide-capped PEG9); Ygp(7) = Tyr with amino-capped PEG8, O-(PEG8-amino)-tyrosine; Yn3(7) = Tyr with azide-capped PEG9, O-(PEG9-azido)-tyrosine; Ygp″ = O-(8x polyethylene glycol-amino)-tyrosine; Yn3″ = O-(9x polyethylene glycol-azido)-tyrosine; Ygp(3) = O-(PEG8-amino)-tyrosine; Yn3(3) = O-(PEG9-azido)-tyrosine; hSer = N[C@@H](CCO)C(=O)O; Nle = CCCC[C@H](N)C(=O)O; Dab = NCC[C@H](N)C(=O)O

Tests used:
IL-2 receptor βγ complex [1] = target: T1, IL-2 receptor βγ complex (human, UniProt P14784 27-551; P31785 23-369); assay: cell-based or functional assay
T1 sequence (looked up) 1: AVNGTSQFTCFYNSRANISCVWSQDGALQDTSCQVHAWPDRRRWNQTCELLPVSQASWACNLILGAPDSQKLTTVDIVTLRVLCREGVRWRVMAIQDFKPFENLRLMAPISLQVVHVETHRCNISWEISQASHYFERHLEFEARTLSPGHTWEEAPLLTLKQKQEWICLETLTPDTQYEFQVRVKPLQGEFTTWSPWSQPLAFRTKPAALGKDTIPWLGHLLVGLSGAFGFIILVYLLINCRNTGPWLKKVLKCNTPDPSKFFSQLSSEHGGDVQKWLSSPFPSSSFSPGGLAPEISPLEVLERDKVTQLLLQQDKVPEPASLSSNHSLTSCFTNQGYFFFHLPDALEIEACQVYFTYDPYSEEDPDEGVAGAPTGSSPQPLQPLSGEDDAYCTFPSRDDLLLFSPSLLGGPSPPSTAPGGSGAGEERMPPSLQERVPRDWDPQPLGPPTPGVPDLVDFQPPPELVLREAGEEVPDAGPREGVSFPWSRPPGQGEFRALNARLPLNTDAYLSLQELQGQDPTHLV
T1 sequence (looked up) 2: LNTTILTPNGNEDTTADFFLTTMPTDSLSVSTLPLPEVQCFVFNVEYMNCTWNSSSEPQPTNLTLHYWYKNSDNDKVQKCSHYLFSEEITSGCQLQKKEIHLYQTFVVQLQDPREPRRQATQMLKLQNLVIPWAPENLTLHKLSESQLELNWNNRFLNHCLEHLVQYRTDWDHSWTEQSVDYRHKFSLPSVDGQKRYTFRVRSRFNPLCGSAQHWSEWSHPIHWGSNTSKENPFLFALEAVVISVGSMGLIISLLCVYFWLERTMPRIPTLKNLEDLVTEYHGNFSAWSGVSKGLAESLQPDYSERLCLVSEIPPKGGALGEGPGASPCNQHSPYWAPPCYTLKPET

IL-2 receptor βγ complex [2] = target: T1, IL-2 receptor βγ complex; assay: cell-based or functional assay; remark: listed apart in the source
[3] = target: T2, IL-2 receptor βγ complex on C57BL/6 mouse splenocytes (mouse, UniProt P16297 27-539; P34902 23-369); assay: cell-based or functional assay
T2 sequence (looked up) 1: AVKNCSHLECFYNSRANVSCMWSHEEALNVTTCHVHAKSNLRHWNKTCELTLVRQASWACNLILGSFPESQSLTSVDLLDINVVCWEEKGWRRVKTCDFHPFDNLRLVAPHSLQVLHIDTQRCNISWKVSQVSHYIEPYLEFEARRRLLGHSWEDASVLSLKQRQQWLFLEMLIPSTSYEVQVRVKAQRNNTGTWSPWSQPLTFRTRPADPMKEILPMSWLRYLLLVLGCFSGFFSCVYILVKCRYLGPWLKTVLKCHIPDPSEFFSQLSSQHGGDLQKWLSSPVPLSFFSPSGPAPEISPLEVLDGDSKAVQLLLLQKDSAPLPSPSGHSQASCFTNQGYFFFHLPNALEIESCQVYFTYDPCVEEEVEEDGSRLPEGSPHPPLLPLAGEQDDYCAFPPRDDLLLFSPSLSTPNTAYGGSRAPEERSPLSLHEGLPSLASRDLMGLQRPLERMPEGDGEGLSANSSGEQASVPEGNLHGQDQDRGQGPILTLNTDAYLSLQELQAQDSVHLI
T2 sequence (looked up) 2: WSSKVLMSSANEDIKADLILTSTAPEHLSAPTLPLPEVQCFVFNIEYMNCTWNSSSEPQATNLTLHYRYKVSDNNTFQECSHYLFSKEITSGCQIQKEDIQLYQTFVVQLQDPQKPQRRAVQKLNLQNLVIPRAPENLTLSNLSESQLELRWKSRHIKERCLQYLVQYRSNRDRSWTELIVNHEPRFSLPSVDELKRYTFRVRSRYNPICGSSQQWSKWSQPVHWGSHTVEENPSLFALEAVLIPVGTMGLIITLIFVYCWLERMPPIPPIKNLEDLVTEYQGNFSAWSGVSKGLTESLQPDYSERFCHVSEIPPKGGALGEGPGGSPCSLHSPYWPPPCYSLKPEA

[4] = target: T3, Avi-tag Fc with human IL-2R beta and IL-2R gamma attached (Acrobiosystems ACRB-ILG-H82F3-25UG) (human, UniProt P14784 27-239; P31785 23-262); assay: BLI (Octet R8), receptor on SAX2 sensor; construct CMP-145, not MMP2-treated
T3 construct: Bought; attached to the SAX2 biosensor; also called CD122 CD132; IL-2R βγ; not shown: Fc and Avi-tag
T3 sequence (looked up) 1: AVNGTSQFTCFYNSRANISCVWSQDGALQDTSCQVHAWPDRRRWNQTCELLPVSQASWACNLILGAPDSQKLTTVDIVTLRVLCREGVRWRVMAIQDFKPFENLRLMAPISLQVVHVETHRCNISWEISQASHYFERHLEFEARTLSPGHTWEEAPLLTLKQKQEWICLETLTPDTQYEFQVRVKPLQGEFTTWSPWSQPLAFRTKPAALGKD
T3 sequence (looked up) 2: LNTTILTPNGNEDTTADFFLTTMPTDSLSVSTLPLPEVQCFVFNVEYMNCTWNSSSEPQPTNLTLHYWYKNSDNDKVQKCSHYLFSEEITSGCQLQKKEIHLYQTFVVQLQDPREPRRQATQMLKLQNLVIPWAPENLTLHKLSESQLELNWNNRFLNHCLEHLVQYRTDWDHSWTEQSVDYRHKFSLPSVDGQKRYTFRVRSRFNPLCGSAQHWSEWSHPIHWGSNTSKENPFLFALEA
Description: (§1) Bilayer interferometry (BLI) assays were used to measure the binding constants between activatable IL-2 polypeptides (and activated versions thereof) to IL-2 receptor subunits or receptor complexes. BLI assays were conducted on an Octet® R8 instrument. Assay plates were 96 well, polypropylene, F-bottom (chimney well), black microplates (Greiner Bio-one, Cat. No: 655209). The biosensors were Octet® SAX2 (Sartorius, Cat. No: 18-5136). The assay buffer was 1X Kinetic Buffer (Sartorius, Cat. no: 18-5136) or Phosphate Buffered Saline (PBS) that contained 0.02% (v: v) Tween 20 (Polysorbate 20) and 0.1% (w/v) bovine serum albumin (BSA). The sensor was regenerated between measurements in 10 mM glycine pH 2.7 buffer.
(§2) Sensor attached receptors were either recombinant human IL-2 receptor beta containing a His-tag and Avi-tag™ (R&D Systems™) or an Avi-tag™ Fc with human IL-2R beta and IL-2R gamma attached (Acrobiosystems Cat. no: ACRB-ILG-H₈₂F3-25UG). Receptors were reconstituted from lyophilized powder to 500 μg/ml in PBS. Analytes were diluted in Kinetic buffer to 300 nM, then serially diluted to lower concentrations.

[5] = target: T4, recombinant human IL-2 receptor beta containing a His-tag and Avi-tag (human, UniProt P14784 27-239); assay: as above
T4 construct: Bought; attached to the SAX2 biosensor; also called CD122; IL-2R β; not shown: His-tag and Avi-tag
T4 sequence (looked up): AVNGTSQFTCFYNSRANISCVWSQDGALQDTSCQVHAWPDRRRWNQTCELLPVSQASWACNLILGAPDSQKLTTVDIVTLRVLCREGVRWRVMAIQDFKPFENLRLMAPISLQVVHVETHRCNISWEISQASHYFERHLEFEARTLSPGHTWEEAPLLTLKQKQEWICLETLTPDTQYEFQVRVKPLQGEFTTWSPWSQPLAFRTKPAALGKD
Description: as §1, §2

[6] = target: T3, Avi-tag Fc with human IL-2R beta and …; assay: BLI (Octet R8), receptor on SAX2 sensor
Description: as §1, §2

[7] = target: T5, IL-2 receptor βγ complex on human T cells (human, UniProt P14784 27-551; P31785 23-369); assay: cell-based or functional assay
T5 sequence (looked up) 1: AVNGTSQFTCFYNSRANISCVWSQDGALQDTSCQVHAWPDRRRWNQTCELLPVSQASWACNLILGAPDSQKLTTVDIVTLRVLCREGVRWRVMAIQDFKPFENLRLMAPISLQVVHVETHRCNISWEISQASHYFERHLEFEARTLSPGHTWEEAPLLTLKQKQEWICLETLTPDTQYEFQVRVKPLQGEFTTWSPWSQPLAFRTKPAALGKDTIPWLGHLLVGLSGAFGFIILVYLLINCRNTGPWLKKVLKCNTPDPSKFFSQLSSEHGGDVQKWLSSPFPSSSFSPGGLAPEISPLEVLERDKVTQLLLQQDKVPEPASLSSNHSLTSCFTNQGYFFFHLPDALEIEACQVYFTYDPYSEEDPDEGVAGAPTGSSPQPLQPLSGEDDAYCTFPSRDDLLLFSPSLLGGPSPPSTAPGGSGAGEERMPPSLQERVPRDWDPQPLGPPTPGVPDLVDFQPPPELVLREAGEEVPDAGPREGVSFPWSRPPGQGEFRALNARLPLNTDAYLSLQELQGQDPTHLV
T5 sequence (looked up) 2: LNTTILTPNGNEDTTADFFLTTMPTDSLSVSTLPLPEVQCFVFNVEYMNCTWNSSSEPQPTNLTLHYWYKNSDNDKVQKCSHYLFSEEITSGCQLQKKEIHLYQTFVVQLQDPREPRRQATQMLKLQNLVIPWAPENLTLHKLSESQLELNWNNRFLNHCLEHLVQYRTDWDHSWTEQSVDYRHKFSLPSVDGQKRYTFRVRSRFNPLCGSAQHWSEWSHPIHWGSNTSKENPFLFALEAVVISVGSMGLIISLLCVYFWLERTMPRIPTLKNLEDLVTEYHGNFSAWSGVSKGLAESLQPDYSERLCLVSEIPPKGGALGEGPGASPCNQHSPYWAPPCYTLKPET

Row | Binder | Average EC50, pSTAT5 Assay (T cells) (IL-2 receptor βγ complex [1]) | Average EC50, pSTAT5 Assay in NK cells (IL-2 receptor βγ complex [2]) | Average EC50, pSTAT5 Assay in mouse splenocytes [3] | also measured
1 | CMP-138, MMP2 cleaved molecule (ligand, ends and bridges not checked; also: cleaved by MMP2, cleavage product not defined, N-terminal PEG4 link and Glu29 side-chain attachment of the cleavable peptide not defined) APTSSSTKKTQLQLEHLLLDLQ[Nle]ILNGIENYKNPKLTR[Nle]L[hSer][Yn3]KF[Ygp][Nle]PKKATELKHLQCLEEELKPLEEVL[hSer]LAQSKNFHLRPRDLISNINVIVLELKGSETTF[hSer]CEYADETATIVEFLNRWITFSQSIISTLT | 2.32 nM | 0.288 nM | 75.1 nM | 
2 | CMP-145, MMP2 cleaved molecule (ligand, ends and bridges not checked; also: Lys23 side chain attached to another sequence (cleavable peptide), cut by MMP2, product not given here) APTSSSTKKTQLQLEHLLLDLQKILNGINNYKNPKLTR[Nle]L[hSer][Yn3]KF[Ygp][Nle]PKKATELKHLQCLEEELKPLEEVL[hSer]LAQSKNFHLRPRDLISNINVIVLELKGSETTF[hSer]CEYADETATIVEFLNRWITFSQSIISTLT |  | 82 pM and 0.246 nM | 55.2 nM | 
3 | CMP-145 (ligand, also: Lys23 side chain attached to another sequence (not given here), Synthetic IL-2 polypeptide, tested intact) APTSSSTKKTQLQLEHLLLDLQKILNGINNYKNPKLTR[Nle]L[hSer][Yn3(3)]KF[Ygp(3)][Nle]PKKATELKHLQCLEEELKPLEEVL[hSer]LAQSKNFHLRPRDLISNINVIVLELKGSETTF[hSer]CEYADETATIVEFLNRWITFSQSIISTLT |  |  |  | Kd [4]: 10.2 nM; Kd [5]: 1830 nM; koff [6]: 0.00117 s⁻¹
4 | CMP-003, MMP2 treated (ligand, ends and bridges not checked) APTSSSTKKTQLQLEHLLLDLQ[Nle]ILNGINNYKNPKLTR[Nle]L[hSer][Yn3]KF[Ygp][Nle]PKKATELKHLQCLEEELKPLEEVL[hSer]LAQSKNFHLRPRDLISNINVIVLELKGSETTF[hSer]CEYADETATIVEFLNRWITFSQSIISTLT |  |  | 45.7 nM | 
5 | CMP-003 (ligand, ends and bridges not checked) APTSSSTKKTQLQLEHLLLDLQ[Nle]ILNGINNYKNPKLTR[Nle]L[hSer][Yn3]KF[Ygp][Nle]PKKATELKHLQCLEEELKPLEEVL[hSer]LAQSKNFHLRPRDLISNINVIVLELKGSETTF[hSer]CEYADETATIVEFLNRWITFSQSIISTLT |  |  | 24 nM | 
6 | CMP-130 (ligand, ends and bridges not checked) APTSSSTKKTQLQLE[Dab]LLLDLQ[Nle]ILNGINNYKNPKLTR[Nle]L[hSer][Yn3(7)]KF[Ygp(7)][Nle]PKKATELKHLQCLEEELKPLEEVL[hSer]LAQSKNFHLRPRDLISNINVIVLELKGSETTF[hSer]CEYADETATIVEFLNRWITFSQSIISTLT |  |  |  | Average EC50, pSTAT5 Assay (T cells), intact molecule [7]: 66.8 nM
7 | CMP-136, MMP2 cleaved molecule (ligand, ends and bridges not checked; also: cleaved by MMP2, cleavage product not defined, N-terminal PEG9 link and Glu29 side-chain attachment of the cleavable peptide not defined) APTSSSTKKTQLQLEHLLLDLQ[Nle]ILNGIENYKNPKLTR[Nle]L[hSer][Yn3]KF[Ygp][Nle]PKKATELKHLQCLEEELKPLEEVL[hSer]LAQSKNFHLRPRDLISNINVIVLELKGSETTF[hSer]CEYADETATIVEFLNRWITFSQSIISTLT | 2.4 nM | 0.277 nM | 84.7 nM | 
8 | CMP-151, MMP2 cleaved molecule (ligand, not fully specified; also: cleaved by MMP2, cleavage product not defined, N-terminal glutaryl-PEG9 link and Lys23 side-chain attachment not defined) APTSSSTKKTQLQLEHLLLDLQKILNGINNYKNPKLTR[Nle]L[hSer][Yn3″]KF[Ygp″][Nle]PKKATELKHLQCLEEELKPLEEVL[hSer]LAQSKNFHLRPRDLISNINVIVLELKGSETTF[hSer]CEYADETATIVEFLNRWITFSQSIISTLT | 1.81 nM | 0.352 nM | 89.2 nM | 
